The source of these data is patent publication US20180021429A1, “ANTICANCER AGENTS OR ANTIMETASTATIC AGENTS USING FSTL1 AND COMBINATION DRUG THEREOF” (PHARMA FOODS INTERNATIONAL CO., LTD., priority 2015, published 2018).

Assay [1] has as its target T1, FSTL1 (Homo sapiens, UniProt Q12841).
T1 sequence (Q12841 21-308): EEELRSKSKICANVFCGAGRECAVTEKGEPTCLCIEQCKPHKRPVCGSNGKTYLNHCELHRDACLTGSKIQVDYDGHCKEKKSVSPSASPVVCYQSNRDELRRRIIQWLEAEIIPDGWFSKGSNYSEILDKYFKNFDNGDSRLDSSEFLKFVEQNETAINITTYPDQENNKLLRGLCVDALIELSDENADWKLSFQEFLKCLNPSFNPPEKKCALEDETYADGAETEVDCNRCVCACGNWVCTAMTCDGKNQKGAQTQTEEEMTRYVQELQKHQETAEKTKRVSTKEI
Description: Affinity of mouse chimeric antibodies, Biacore T-200 (Example 33). The format is binding. The procedure:
(§1) The mouse chimeric antibodies were immobilized onto Sensor Chip CM5 (GE Healthcare Japan Corp., BR-1005-30) using Mouse Antibody Capture Kit (GE Healthcare Japan Corp., BR-1008-38), and their affinity for human FSTL1 was calculated using Biacore T-200 (GE Healthcare Japan Corp.).
First, the exhaustive activity comparison of the obtained antibodies was conducted with the human FSTL1 concentration fixed to 10 μg/ml (Table 33-1, FIG. 28).
Next, the KD values of clone #6-55, #7-34, and #13 presumed to have high affinity in FIG. 28 were calculated with the antigen concentration adjusted to 0 to 20 μg/ml (Table 35-2).
For orientation: In SPR one partner is held on a chip, and binding of the other changes the refractive index at the surface.

In assay [2] the target is T1, FSTL1. Description: Inhibition of induction of MSCs, cancer-associated MSCs and M-MDSCs by FSTL1 in mouse bone marrow cells (Examples 13 to 15). The format is cell-based. Details: purchased R&D Systems, Inc. 1694-FN-050. Here is the method:
The antibody clone (#6-55, #7, […], #13, or #22) was evaluated for its activity by the same testing method as in Example 13. #6-55 was set as a positive control for activity. […] Mouse bone marrow cells were supplemented with FSTL1 and the predetermined concentration of each antibody and cultured for 8 days. 5×10^4 cells/well were separated from each culture system and evaluated for the ability to differentiate into adipocytes using an adipocyte differentiation reagent included in “Mesenchymal Stem Cell Functional Identification Kit (R&D Systems, Inc., Cat. No. SCO10)”. For the evaluation method, the cells were supplemented with the adipocyte differentiation reagent and cultured for 8 days. Then, adipocytes per culture system were counted under a microscope for evaluation. In the graph, none is depicted in the leftmost bar, and the control antibody is depicted in the second bar from the left followed by the anti-FSLT1 antibody clones. Adipocytes were not confirmed for any of the anti-FSLT1 antibodies. It is understood that the differentiation induction of MSCs serving as the original source is inhibited.
Mouse bone marrow cells (bone marrow cells prepared in the same way as in Example 4) were supplemented with 20 ng/mL (final concentration) of FSTL1 and 20.0, 10.0, 5.0, or 2.5 μg/ml (final concentration) of the rat anti-FSTL1 antibody or #6-55. Also, mouse bone marrow cells were supplemented with 20.0 μg/ml (final concentration) each of their respective control antibodies, a rat IgG2b isotype control (R&D Systems, Inc., Cat. No. MAB0061, clone 141945) and an anti-DNP antibody. The cells were cultured for 8 days, and the inhibitory activity of each antibody against the induction of MSCs, cancer-associated MSCs, and M-MDSCs by FSTL1 was evaluated in the same way as in Example 13 (FIG. 40A). […] The inhibition of regulatory T cells shown in Patent Literature 1 (WO2009/028411) is presumably a consequence mediated by the inhibition of MSC induction. […]

The target in assay [3] is T1, FSTL1. Description: Affinity of mouse chimeric antibodies for human FSTL1, Biacore T-200 (Example 33). The format is binding. Here is the method:
as §1
First, the exhaustive activity comparison of the obtained antibodies was conducted with the human FSTL1 concentration fixed to 10 μg/ml (Table 33-1, FIG. 58).
Next, the KD values of clone #6-55, #7-34, and #13 presumed to have high affinity in FIG. 58 were calculated with the antigen concentration adjusted to 0 to 20 μg/ml (Table 35-2).
First, the exhaustive activity comparison of the obtained antibodies was conducted with the human FSTL1 concentration fixed to 10 μg/ml (Table 33-1, FIG. 90).
Next, the KD values of clone #6-55, #7-34, and #13 presumed to have high affinity in FIG. 90 were calculated with the antigen concentration adjusted to 0 to 20 μg/ml (Table 35-2).

Where [4] appears, read: Example 14, #6-55 as positive control.

Substitutions are numbered along the chain they refer to. “Also recorded” adds a separate entry of the source.

B1: #6-55: chicken-mouse chimeric anti-FSTL1 antibody clone; variable regions SEQ ID NO: 783 (light), 785 (heavy) (antibody, V domains shown)
VH: AVTLDESGGGLQTPGGALSLVCKGSGFTFTSVTMQWVRQAPGKGLEWVASVCSGSSTYYAPAVKGRATISRDNGQSTVRLQLSNLRPEDTGTYYCAKIAGRARWSCTSAAYNIDAWGHGTEVIVSS
VL: ASTQPSSVSAIPGETVKITCSGGGNNYGWYQQRSPGSAPVTVIYYNDNRPSNIPSRFSGSTSGSTSTLTITGVQADDEAIYYCGSWDSNTDSGIFGAGTTLTVL
modifications: mouse constant regions
On to B1, for which the “affinity in surface plasmon resonance assay” value in assay [1] is given as “strong affinity”. In addition, the “inhibitory activity against the induction of MSCs, cancer-associated MSCs, and M-MDSCs by FSTL1” value (from here on “inhibitory activity”) in assay [2] (Example 15, FSTL1 20 ng/mL, antibody 20.0, 10.0, 5.0, or 2.5 μg/ml, dose dependence not confirmed) is “at the same level; also recorded: slightly superior”. Moreover, in assay [3], the “affinity in an assay system using surface plasmon resonance” value (“affinity in an assay system” below) was “strong affinity”.

B2: #7-34: chicken-mouse chimeric anti-FSTL1 antibody clone; variable regions SEQ ID NO: 787 (light), 789 (heavy) (antibody, V domains shown)
VH: AVTLDESGGGLQTPGGGLSLVCKASGFTFSSVTMQWVRQAPGKGLEWVASICSGSSTYYGPAVKGRATISRDNGQNTVRLQLNNLRAEDTATYYCAKIVGRGRWSCTSAAYNIDAWGHGTEVIVSS
VL: B1 VL with I11N, R33K, D47N, D76E, I80V, W86Y, D87E, S88G, N89S
modifications: mouse constant regions
In the case of B2, in assay [3], the “affinity in an assay system” value is listed as “strong affinity”.

B3: #33: chicken-mouse chimeric anti-FSTL1 antibody clone; variable regions SEQ ID NO: 823 (light), 825 (heavy) (antibody, V domains shown)
VH: AVTLDESGGGLQTPGGGLSLVCKASGFTFSSFNMNWVRQAPGKGLEYVAEISGTGSSTYYGSAVKGRATISRDNGQSTVRLQLNNLRAEDTATYFCARGDGAYSIDAWGHGTEVIVSS
VL: ASTQPSSVSANPGETVEITCSGDSSYYGWFQQKSPGSAPVTVIYDNTNRPSDIPSRFSGSKSGSTATLTITGVRAEDEAVYYCGGYDSSTYDGIFGAGTTLTVL
modifications: mouse constant regions
For B3, the “affinity in surface plasmon resonance assay” value in assay [1] was “strong affinity”. Moreover, the “inhibitory activity” value in assay [2] (setting [4]) is “inhibitory activity equivalent to or higher than that of the positive control”. Further, the “affinity in an assay system” value in assay [3] is given as “strong affinity”.

B4: #13: chicken-mouse chimeric anti-FSTL1 antibody clone; variable regions SEQ ID NO: 815 (light), 817 (heavy) (antibody, V domains shown)
VH: B2 VH
VL: ASTQPSSVSANPGETVKITCSGGGNNYGWYQQKSPGSAPVTVIYNNNNRPSNIPSRFSGSKSGSTNTLTITGVQAEDEAVYYCGSYDSSSDSGIFGAGTTLTVL
modifications: mouse constant regions
In the case of B4, in assay [1], the “affinity in surface plasmon resonance assay” value is “strong affinity”. The “inhibitory activity” value in assay [2] (setting [4]) was “inhibitory activity equivalent to or higher than that of the positive control”. In addition, the “affinity in an assay system” value in assay [3] is on record as “strong affinity”.
